Key:
[1] = target: T1, Soluble human FGFR4/KLB receptor complex (FGFR4 ectodomain-Fc with soluble KLB) (human, UniProt P22455 22-369; Q86Z14 1-996); experiment: AlphaScreen or HTRF; cell-free competition: biotinylated FGF21 on streptavidin donor beads, FGFR1c-Fc or FGFR4-Fc ectodomain on Protein A acceptor beads, human soluble KLB added to give the signal; 5 μg/ml heparin, 0.1% BSA; increasing doses of unlabelled protein or peptide displace biotinylated FGF21; conditions: both partners purified
T1 construct: human FGFR4 ectodomain fused to Fc, coupled to Protein A acceptor beads; human beta-Klotho (KLB) protein, called human soluble KLB; also called hFGFR4/KLB; source: bought: R&D Systems (both chains)
T1 sequence (looked up) 1: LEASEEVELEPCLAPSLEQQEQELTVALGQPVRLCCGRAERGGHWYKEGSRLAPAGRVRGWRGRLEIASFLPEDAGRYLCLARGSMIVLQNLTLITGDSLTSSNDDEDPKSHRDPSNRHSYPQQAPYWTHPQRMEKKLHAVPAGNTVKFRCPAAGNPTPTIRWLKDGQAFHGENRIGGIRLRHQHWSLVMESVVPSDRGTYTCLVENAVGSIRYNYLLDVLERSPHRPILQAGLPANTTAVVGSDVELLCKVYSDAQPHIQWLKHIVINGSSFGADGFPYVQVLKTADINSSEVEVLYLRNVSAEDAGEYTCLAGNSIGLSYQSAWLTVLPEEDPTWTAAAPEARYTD
T1 sequence (looked up) 2: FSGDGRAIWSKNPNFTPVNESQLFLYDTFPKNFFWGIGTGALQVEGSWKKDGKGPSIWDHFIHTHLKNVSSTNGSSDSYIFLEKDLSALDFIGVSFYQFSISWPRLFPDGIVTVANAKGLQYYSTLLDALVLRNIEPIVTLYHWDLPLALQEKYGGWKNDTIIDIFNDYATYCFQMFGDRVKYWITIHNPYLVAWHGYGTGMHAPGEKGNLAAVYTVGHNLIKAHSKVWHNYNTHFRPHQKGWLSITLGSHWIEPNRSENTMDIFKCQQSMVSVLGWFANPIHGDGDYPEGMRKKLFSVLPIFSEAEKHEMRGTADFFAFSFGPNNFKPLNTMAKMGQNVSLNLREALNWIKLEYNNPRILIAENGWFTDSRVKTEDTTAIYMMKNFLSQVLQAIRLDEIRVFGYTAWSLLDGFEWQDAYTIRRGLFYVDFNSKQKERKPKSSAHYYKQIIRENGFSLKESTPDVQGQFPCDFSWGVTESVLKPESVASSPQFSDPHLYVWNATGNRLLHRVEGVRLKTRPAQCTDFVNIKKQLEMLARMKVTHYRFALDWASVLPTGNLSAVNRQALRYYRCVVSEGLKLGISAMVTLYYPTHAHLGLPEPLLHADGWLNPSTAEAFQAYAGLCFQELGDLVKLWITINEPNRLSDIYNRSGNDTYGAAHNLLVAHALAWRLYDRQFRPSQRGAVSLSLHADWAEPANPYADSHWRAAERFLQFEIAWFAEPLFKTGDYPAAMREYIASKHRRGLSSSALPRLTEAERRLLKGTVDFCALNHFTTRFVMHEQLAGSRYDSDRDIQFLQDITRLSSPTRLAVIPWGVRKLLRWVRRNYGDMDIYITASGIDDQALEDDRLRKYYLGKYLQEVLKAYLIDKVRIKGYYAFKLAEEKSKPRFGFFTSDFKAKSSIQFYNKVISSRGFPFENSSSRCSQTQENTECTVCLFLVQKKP

[2] = target: T2, Soluble human FGFR1c/KLB receptor complex (FGFR1c ectodomain-Fc with soluble KLB) (human, UniProt P11362 22-376; Q86Z14 1-996); experiment: as above; conditions: both partners purified
T2 construct: human FGFR1c ectodomain fused to Fc, coupled to Protein A acceptor beads; human beta-Klotho (KLB) protein, called human soluble KLB; also called FGFR1/KLB complex; soluble FGFR1/KLB receptor complex; source: bought: R&D Systems (both chains)
T2 sequence (looked up) 1: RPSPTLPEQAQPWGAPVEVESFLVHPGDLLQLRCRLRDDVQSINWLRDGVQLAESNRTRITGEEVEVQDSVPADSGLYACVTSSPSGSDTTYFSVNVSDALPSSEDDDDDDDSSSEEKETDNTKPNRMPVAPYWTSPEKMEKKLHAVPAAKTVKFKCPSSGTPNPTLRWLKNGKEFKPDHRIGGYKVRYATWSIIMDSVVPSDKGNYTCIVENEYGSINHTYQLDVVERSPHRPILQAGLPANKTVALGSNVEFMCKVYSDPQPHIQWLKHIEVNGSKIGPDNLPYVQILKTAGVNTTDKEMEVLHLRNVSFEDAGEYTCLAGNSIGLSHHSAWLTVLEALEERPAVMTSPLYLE
T2 sequence (looked up) 2: T1 sequence (looked up) 2

B1: Human FGF21 (1-181) (ligand, UniProt Q9NSA1 29-209, looked up)
chain: HPIPDSSPLLQFGGQVRQRYLYTDDAQQTEAHLEIREDGTVGGAADQSPESLLQLKALKPGVIQILGVKTSRFLCQRPDGALYGSLHFDPEACSFRELLLEDGYNVYQSEAHGLPLHLPGNKSPHRDPAPRGPARFLPLPGLPPALPEPPGILAPQPPDVGSSDPLSMVGPSQGRSPSYAS
notes: also called fibroblast growth factor 21; native FGF21; source: E. coli OrigamiB (DE3), purified (Ni-NTA, SUMO protease digestion, Q-Sepharose)
[1]
  IC50: 1220 nM
[2]
  IC50: 123 nM

Reference: article PMC6026317, “Molecular elements in FGF19 and FGF21 defining KLB/FGFR activity and specificity” (Molecular Metabolism, 2018)
